Reference: patent US20210206850A1 (ACCURUS BIOSCIENCES, published 2021)
Several values for one entry are separate records, joined by “and”; a condition that tells them apart may be missing. Identical values can stand only once.

Legend:
[1] = molecular target: T1, human CD47ECD His tagged protein (human, UniProt Q08722 19-139, limits assumed); assay: ELISA ligand blocking, plate coated with human CD47 ECD His tagged protein at 1 ug/ml; blocked ligand human SIRPaECD huFc at 1 ug/ml, anti-human IgG-HRP
T1 construct: extracellular domain; also called HuCD47ECD 8xHis; monovalent CD47ECD His tagged protein
T1 sequence (Q08722 19-139 limits assumed): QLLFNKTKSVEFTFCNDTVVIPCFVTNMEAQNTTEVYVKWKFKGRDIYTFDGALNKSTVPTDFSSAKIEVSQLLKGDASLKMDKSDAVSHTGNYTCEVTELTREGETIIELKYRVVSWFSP
Procedure: (§1) To evaluate the blocking ability of anti-human CD47 mouse mAb on recombinant human CD47 binding to its ligand SIRPα, an ELISA based ligand blocking assay was employed. Briefly, microtiter plates were coated with human CD47ECD His tagged protein at 1 μg/ml in PBS, 100 μl well at 4° C. overnight, then blocked with 100 μl/well of 2% BSA. […] The plates were washed with PBS/Tween and then incubated with anti-human IgG-HRP for 1 hour at 37° C. After washing, the plates were developed with TMB substrate and analyzed by spectrophotometer at OD 450 nm.

[2] = molecular target: T2, His tagged mouse CD47 protein (mouse, UniProt Q61735 19-140, limits assumed); assay: ELISA, plate coated with His tagged mouse CD47 at 2 ug/ml, goat anti-mouse IgG-HRP, OD450
T2 construct: Bought protein
T2 sequence (looked up): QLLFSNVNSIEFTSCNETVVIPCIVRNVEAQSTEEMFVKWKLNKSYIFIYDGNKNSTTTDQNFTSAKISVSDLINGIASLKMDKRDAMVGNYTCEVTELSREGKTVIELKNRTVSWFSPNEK
Procedure: To evaluate the binding cross-reactivity of anti-human CD47 antibodies to cynomolgus and mouse CD47, an ELISA based binding assay was used. Briefly, microtiter plates were coated with His tagged cynomolgus monkey CD47 or His tagged mouse CD47 protein (purchase from Acro Biosystem). Both proteins were coated at 2 μg/ml in PBS, 100 μl/well at 4° C. overnight. The plates were then blocked with 100 μl/well of 2% BSA. Ten-fold dilutions of mouse anti-human CD47 hybridoma antibodies were added to each well starting at 70 ug/ml and incubated for 1-2 hours at RT. The plates were washed with PBS/Tween and then incubate with goat-anti-mouse IgG antibody conjugated with Horse Radish Peroxidase (HRP) for 1 hour at RT. After washing, the plates were developed with TMB substrate and analyzed by spectrophotometer at OD 450 nm.

[3] = molecular target: T1, human CD47ECD His tagged protein; assay: ELISA competition; plate-bound human CD47ECD His, competitor ligand SIRPα huFc 1 ug/ml
Procedure: as §1

[4] = molecular target: T3, human CD47ECD human Fc protein (human, UniProt Q08722 19-139, limits assumed); assay: ELISA, plate coated with human CD47ECD huFc at 1 ug/ml, goat anti-mouse IgG-HRP, OD450
T3 construct: extracellular domain; also called human CD47ECD huFc; human CD47huFc; not shown: human Fc
T3 sequence (Q08722 19-139 limits assumed): as the sequence (Q08722 19-139 limits assumed) above
Excerpt: After washing, the plates were developed with TMB substrate and analyzed by spectrophotometer at OD 450 nm.

[5] = molecular target: T1, human CD47ECD His tagged protein; assay: SPR (Biacore 3000); antibody captured on anti-human Fc chip, monovalent HuCD47ECD 8xHis injected; column Affinity (nM)
Procedure: (§2) The binding affinities of anti-human CD47 mouse/human chimeric antibodies to human CD47 protein were determined with BIACORE™ using a capture method. The anti-human CD47 mouse/human chimeric antibodies were captured using anti-human Fc antibody coated on a CMS chip. Serial dilutions of human CD47ECD mouse Fc protein starting from 400 nM were injected over captured antibody for 1 mins at a flow rate of […]. Alternatively, serial dilutions of human CD47ECD His tagged protein starting from 800 nM were injected over captured antibody for 1 min at a flow rate of […]. The antigens were allowed to dissociate for 900s. All the experiments were carried out on a Biacore 3000. Data analysis was carried out using Biacore 3000 evaluation software.

[6] = molecular target: T4, human CD47ECD mouse Fc protein (human, UniProt Q08722 19-139, limits assumed); assay: SPR (Biacore 3000); antibody captured on anti-human Fc chip, bivalent HuCD47ECD muFc injected; column Affinity (nM)
T4 construct: extracellular domain; also called HuCD47ECD muFc; bivalent CD47ECD muFc protein; not shown: mouse Fc
T4 sequence (Q08722 19-139 limits assumed): as the sequence (Q08722 19-139 limits assumed) above
Procedure: as §2

[7] = molecular target: T4, human CD47ECD mouse Fc protein; assay: SPR (Biacore 3000); antibody captured on anti-human Fc chip, bivalent HuCD47ECD muFc injected
Procedure: as §2

[8] = molecular target: T1, human CD47ECD His tagged protein; assay: SPR (Biacore 3000); antibody captured on anti-human Fc chip, monovalent HuCD47ECD 8xHis injected
Procedure: as §2

[9] = molecular target: human CD47 (full length) expressed on cells (human) (UniProt Q08722); assay: FACS ligand blocking on CD47-CHO cells; blocked ligand FITC human SIRPa huFc at 4 ug/ml
human CD47 (full length) expressed on cells (human), sequence (Q08722 19-323): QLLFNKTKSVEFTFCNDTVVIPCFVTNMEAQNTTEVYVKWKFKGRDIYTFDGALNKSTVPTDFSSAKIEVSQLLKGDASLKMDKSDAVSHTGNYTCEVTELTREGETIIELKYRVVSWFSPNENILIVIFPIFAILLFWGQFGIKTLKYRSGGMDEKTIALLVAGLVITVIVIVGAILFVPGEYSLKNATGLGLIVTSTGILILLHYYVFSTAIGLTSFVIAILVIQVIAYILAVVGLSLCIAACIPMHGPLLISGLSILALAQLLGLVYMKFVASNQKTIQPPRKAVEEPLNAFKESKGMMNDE

B1: D125S3 (antibody, V domains shown)
VH: EVQLVESGGDLVKPGGSLNLSCAASGFTFSDYGMSWVRQTPDMRLEWVATISKYGTYTSYPDSVKGRFTISRSNAKNTLYLQMSSLKSADTALYYCARRFFGNYNYWYFDVWGAGTTVTVSS
VL: DIVLTQSPASLAVSLGQRATFSCRASESVDEFGISYIHWYKKSPGQPPKLLIYRASTLESGISARFSGSGSGTDFTLTINPVETDDVATYYCQQSNQDPLTFGAGTKLELK
notes: Mouse hybridoma form; the mouse/human chimeric form with the same V regions is m18; also called D125S3 mouse anti-human CD47 hybridoma antibody
IC50 [1]: 0.25 µg/mL and 1.69 nM
binding result [2]: no binding (tested: 70 ug/ml)

B2: D36S4 mouse anti-human CD47 hybridoma antibody (antibody, V domains shown)
VH: EVKLEESGGGLVQPGGSMKLSCVASGFTFSRYWMNWVRQSPDKGLEWVAQIRLKSDNYETHYAESVKGRFTISRDDSKSSVYLQMNNLRAEDTGIYYCIEEGGYYVPFAYWGQGTLVTVSA
VL: DIVVSQSPSSLAVSAGEKVTMSCKSSQSLFKSRTRKNYLAWYQQRPGQSPKLLIYWASIRESGVPDRFTGSGSGTEFTLTISSVQAEDLAVYYCKQSYYLLTFGAGTKLELK
notes: Mouse hybridoma IgG
IC50 [3]: 0.59 nM
IC50 [1]: 0.09 µg/mL
binding result [2]: binds
EC50 (read off the curve) [4]: ~0.02 µg/mL

B3: AB6.12, a humanized version of anti-CD47 antibody 2A1 from Celgene (antibody, from another filing, V domains shown)
VH: QMQLVQSGAEVKKTGSSVKVSCKASGFNIKDYYLHWVRQAPGQALEWMGWIDPDQGDTEYAQKFQDRVTITRDRSMSTAYMELSSLRSEDTAMYYCNAAYGSSSYPMDYWGQGTTVTVSS
VL: NIQMTQSPSAMSASVGDRVTITCKASQDIHRYLSWFQQKPGKVPKHLIYRANRLVSGVPSRFSGSGSGTEFTLTISSLQPEDFATYYCLQYDEFPYTFGGGTKVEIKR
Kd [5]: 0.798 nM
Kd [6]: 0.0479 nM
Kd [7]: 0.0479 nM
koff [7]: 2.25e-05 s⁻¹
kon [7]: 469000 M⁻¹ s⁻¹
Kd [8]: 0.798 nM
koff [8]: 0.000703 s⁻¹
kon [8]: 881000 M⁻¹ s⁻¹
IC50 [9]: 8.6 µg/mL

B4: D8S1 (antibody, V domains shown)
VH: EVQLQQSVAELVRPGASVKLSCTVSGFNIKNTYIYWVKQRPEQGLEWIGRIDPANGNTKDAPKFQGKATMTADTSSNTAYLQLSSLTSEDTAIYYCARGYGSGFAYWGQGTLVTVSA
VL: DIQMTQTTSSLSASLGDRVTISCRASQDISNHLNWYQQKPDGIVKLLIYYTSRLHSGVPSRFSGSGSGTDYSLTISNLEQEDIATYFCQQGSTLPFTFGSGTKLEIK
notes: Mouse hybridoma form; the mouse/human chimeric form with the same V regions is m13; also called D8S1 mouse anti-human CD47 hybridoma antibody
IC50 [1]: 0.27 µg/mL and 1.77 nM
binding result [2]: no binding (tested: 70 ug/ml)

B5: D96S1 mouse anti-human CD47 hybridoma antibody (antibody, V domains shown)
VH: EVQLQQSGAELVKPGASVKLSCTASGFNIKDTYIHWVKQRPEQGLEWIGRIDPANGNIKSDPKFQGKATVTADTSSNTAYLQLSSLTSEDTAVYYCARSYGSSFASWGQGTLVTVSP
VL: DIQMTQTTSSLSASLGDRVTISCRASQDISNHLNWYQQKPDGAVKLLIYYTSRLHSGVPSRFSGSGSGTDYSLTISNLEQEDIATYFCQQGSTFPYTFGGGTKLEIK
notes: Mouse hybridoma IgG
IC50 [1]: 1.94 µg/mL and 12.9 nM
binding result [2]: no binding (tested: 70 ug/ml)

B6: D41S2 (antibody, V domains shown)
VH: EVQLQQSVAELVRPGASVKLSCTPSGFNIKNTYIYWVRQRPEQGLEWIGRIDPANGNTKDAPKFQGKATMTADTSSNTAYLQLSSLTSEDTAIYYCARGYGSGFAYWGQGTLVTVSA
VL: DIQMTQTTSSLSASLGDRVTISCRASQDISNHLNWYQQKPDGTVKLLIYYTSRLHSGVPSRFSGSGSGTDYSLTISNLEQEDIATYFCQQGSTLPFTFGSGTKLEIK
notes: Mouse hybridoma form; the mouse/human chimeric form with the same V regions is m16; also called D41S2 mouse anti-human CD47 hybridoma antibody
IC50 [1]: 0.16 µg/mL and 1.06 nM
binding result [2]: no binding (tested: 70 ug/ml)

B7: D28S1 mouse anti-human CD47 hybridoma antibody (antibody, V domains shown)
VH: EVQLVESGGDLVKPGGSLKLSCAASGFTFTSYGMSWVRQTPDKRLEWVATINTGGSYTYYPDSVKGRFTISRDNAKNTLYLQMSSLKSEDTAMYYCARHTIKSLMDYWGQGTSVTVSS
VL: ETTVTQSPASLSMAIGEKVTIRCITSTDIDDDMNWYQQKPGEPPKLLISEGNTLRPGVPSRFSSSGYGTDFVFIIENMFSEDVADYYCLQSDNLPYTFGSGTKLEIK
notes: Mouse hybridoma IgG
IC50 [3]: 1 nM
IC50 [1]: 0.15 µg/mL and 1.02 nM
